The values below come from patent US20100297003A1 (TECNOGEN S C P A, published 2010).

By Kd is commonly meant the equilibrium constant for the complex coming apart. Read a high Kd as lower affinity. As a reminder, the koff is a measure of how fast the partners let go of each other. A word on the kon: it is the rate constant with which the complex forms. Usually EC50 (read off the curve) stands for the concentration at which the effect is half-maximal.

Test [1] has as its target human tenascin C (human) (UniProt P24821). As to the kind of experiment: BIAcore on whole tenascin. On the technique in general: In SPR one partner is held on a chip, and binding of the other changes the refractive index at the surface.
Test [2] has the same target. As to the kind of experiment: ELISA on tenascin C, biotinylated against non-biotinylated antibody. On the technique in general: An ELISA detects its analyte on a solid surface through an enzyme-linked reagent.
Test [3] concerns the target T1, Tn (A(1-4)-D) fragment of human tenascin (human, UniProt P24821 1076-1711, limits assumed).
T1 construct: domain: A(1-4)-D
T1 sequence (looked up): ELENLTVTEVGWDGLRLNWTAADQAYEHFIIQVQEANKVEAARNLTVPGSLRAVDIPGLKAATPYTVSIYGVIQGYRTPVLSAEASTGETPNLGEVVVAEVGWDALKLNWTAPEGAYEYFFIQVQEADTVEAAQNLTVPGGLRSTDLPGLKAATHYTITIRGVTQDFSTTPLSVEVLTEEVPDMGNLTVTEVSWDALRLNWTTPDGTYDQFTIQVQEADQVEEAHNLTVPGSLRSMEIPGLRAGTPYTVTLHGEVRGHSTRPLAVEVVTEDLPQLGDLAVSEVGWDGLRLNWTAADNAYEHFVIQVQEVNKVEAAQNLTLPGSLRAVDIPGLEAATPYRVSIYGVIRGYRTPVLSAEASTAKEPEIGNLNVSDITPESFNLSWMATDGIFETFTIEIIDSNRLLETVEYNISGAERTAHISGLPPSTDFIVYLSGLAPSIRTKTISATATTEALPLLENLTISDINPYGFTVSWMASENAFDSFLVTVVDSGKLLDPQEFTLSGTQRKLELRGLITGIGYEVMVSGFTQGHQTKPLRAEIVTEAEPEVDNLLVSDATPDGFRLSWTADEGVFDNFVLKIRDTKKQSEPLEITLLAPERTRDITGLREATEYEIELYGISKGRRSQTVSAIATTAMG
The test is described as follows: ELISA on Tn A(1-4)-D fragment, biotinylated against non-biotinylated antibody.

For test [4], the target named is human tenascin C (human) (UniProt P24821). The test is described as follows: BIAcore on tenascin C.
The target in test [5] is T1, Tn (A(1-4)-D) fragment of human tenascin. The test is described as follows: BIAcore on Tn (A1-4-D) fragment.
Test [6] has as its target T2, EGF-like fragment of human tenascin (human, UniProt P24821 174-621, limits assumed).
T2 construct: domain: EGF-like
T2 sequence (looked up): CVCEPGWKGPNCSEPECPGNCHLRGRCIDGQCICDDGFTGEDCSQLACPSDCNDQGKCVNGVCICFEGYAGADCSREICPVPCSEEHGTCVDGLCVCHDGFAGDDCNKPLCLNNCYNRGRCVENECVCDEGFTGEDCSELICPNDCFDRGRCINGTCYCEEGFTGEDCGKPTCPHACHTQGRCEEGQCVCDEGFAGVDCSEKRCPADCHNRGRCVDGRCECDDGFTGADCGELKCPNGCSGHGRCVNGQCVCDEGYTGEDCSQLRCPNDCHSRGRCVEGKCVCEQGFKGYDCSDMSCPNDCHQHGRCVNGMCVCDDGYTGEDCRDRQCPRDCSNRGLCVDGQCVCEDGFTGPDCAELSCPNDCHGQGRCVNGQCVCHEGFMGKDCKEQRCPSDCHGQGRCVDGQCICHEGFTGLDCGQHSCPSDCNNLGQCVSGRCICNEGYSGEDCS
The test is described as follows: Western blot. Background: In western blotting, separated proteins are transferred to a membrane and probed.

Test [7] has as its target human tenascin C (human) (UniProt P24821). As to the kind of experiment: ELISA on plates coated with tenascin C, reference BC-2.
Test [8] deals with T1, Tn (A(1-4)-D) fragment of human tenascin. As to the kind of experiment: ELISA on plates coated with Tn A(1-4)-D fragment, reference BC-2. The method, then: The immunoreactivity of ST2485 was evaluated in comparison with BC-2 by ELISA assay on tenascin C and on the Tn A₍₁₋₄₎-D fragment, as shown in FIG. 7. The antibodies ST2485 and BC-2 and the normal mouse immunoglobulins (nMIgG) were dispensed at increasing concentrations on plates sensitised with tenascin C (a) or with the Tn A₍₁₋₄₎-D fragment (b); the addition of the secondary antimouse antibody labelled with alkaline phosphatase and the related chromogenic substrate (pNPP) made it possible to determine the dose-response curve of the antibodies. The amount of ST2485 necessary to obtain 1.0 OD is approximately 13 times less than the amount of BC-2 on whole tenascin (a), and approximately 10 times less than the amount of BC-2 on the Tn (A1-4-D) fragment (b).

In test [9] the target is human tenascin C (human) (UniProt P24821). As to the kind of experiment: competitive ELISA on tenascin C; competitor biotinylated BC-2 at fixed concentration.
Test [10] shares this target. The test is described as follows: ELISA on plates coated with tenascin C, alkaline phosphatase anti-mouse antibody, pNPP.
The target of test [11] is T1, Tn (A(1-4)-D) fragment of human tenascin. The test is described as follows: competitive ELISA on plates coated with Tn A(1-4)-D fragment; unlabelled antibody at increasing concentration against biotinylated BC-2 at a fixed concentration, HRP-streptavidin/TMB. The method, then: The biotinylated antibody BC-2, at a concentration established in preliminary experiments, is dispensed with non-biotinylated BC-2 (curve 1) or ST2485 (curve 2) in increasing concentrations on plates sensitised with the antigen tenascin C (a), or Tn A₍₁₋₄₎-D fragment (b). The binding of the biotinylated antibody is measured after addition of HRP-streptavidin and the related chromogenic substrate TMB.

For test [12], the target named is human tenascin C (human) (UniProt P24821). The test is described as follows: BIAcore on whole tenascin, reference biotinylated BC-2.

human tenascin C (human), sequence (P24821 23-2201): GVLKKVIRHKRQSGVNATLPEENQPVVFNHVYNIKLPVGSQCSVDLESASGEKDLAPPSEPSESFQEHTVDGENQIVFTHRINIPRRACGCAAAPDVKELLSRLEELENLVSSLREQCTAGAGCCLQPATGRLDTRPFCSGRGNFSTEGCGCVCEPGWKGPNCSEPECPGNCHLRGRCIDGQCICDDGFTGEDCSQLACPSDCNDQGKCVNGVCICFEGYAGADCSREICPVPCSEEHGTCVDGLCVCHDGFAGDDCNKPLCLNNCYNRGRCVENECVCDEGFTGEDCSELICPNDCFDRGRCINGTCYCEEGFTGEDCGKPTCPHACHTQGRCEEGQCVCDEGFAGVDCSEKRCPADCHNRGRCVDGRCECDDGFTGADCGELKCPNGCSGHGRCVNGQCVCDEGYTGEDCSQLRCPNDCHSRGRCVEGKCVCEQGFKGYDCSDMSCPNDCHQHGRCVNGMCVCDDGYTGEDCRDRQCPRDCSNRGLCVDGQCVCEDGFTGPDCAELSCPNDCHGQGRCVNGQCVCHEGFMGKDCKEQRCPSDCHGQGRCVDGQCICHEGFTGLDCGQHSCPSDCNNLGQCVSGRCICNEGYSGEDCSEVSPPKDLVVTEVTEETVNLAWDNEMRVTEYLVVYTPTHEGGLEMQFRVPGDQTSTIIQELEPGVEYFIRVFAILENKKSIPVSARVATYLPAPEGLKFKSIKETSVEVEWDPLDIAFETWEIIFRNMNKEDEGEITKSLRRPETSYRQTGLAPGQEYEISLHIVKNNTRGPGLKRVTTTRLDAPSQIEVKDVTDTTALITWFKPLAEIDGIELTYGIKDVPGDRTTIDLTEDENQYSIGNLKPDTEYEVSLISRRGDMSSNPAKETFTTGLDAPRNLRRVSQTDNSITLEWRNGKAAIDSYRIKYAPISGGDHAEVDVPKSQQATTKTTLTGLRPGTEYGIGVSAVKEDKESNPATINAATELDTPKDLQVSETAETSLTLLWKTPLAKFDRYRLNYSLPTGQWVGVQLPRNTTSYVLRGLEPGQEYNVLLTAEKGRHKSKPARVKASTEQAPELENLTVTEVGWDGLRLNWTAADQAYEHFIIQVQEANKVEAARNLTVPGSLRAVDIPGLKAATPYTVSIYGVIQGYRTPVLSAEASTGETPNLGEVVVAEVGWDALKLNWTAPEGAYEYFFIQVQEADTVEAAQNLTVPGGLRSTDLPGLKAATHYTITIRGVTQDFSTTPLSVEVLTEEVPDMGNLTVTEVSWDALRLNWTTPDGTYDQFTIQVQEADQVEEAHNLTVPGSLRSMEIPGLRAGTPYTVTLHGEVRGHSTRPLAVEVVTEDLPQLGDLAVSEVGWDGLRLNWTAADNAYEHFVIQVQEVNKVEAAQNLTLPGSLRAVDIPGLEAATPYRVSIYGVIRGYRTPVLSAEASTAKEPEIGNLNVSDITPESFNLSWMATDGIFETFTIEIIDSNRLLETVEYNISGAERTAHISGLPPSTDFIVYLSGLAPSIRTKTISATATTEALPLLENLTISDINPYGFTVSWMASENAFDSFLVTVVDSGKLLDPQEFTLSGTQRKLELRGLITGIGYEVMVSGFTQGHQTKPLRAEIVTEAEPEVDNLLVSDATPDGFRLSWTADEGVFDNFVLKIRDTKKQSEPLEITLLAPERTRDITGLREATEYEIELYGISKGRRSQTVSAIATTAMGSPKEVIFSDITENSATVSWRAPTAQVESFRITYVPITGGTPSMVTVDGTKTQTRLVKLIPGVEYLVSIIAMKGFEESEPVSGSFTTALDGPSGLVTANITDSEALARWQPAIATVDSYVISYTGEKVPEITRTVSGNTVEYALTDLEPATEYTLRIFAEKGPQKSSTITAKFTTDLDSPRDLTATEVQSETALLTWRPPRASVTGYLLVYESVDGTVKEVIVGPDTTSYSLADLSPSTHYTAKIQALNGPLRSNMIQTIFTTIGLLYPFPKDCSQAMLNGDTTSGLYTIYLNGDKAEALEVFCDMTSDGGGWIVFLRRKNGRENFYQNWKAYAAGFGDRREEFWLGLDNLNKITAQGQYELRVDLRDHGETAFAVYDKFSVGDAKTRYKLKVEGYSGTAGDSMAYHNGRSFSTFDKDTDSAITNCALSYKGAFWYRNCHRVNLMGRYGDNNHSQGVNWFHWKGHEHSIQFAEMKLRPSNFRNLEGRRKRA

biotinylated BC-2 (antibody) registered an equilibrium dissociation constant (Kd) with human tenascin C (human) [1] of 371 nM. The values for the residual immunoreactivity (with human tenascin C (human) [2]; in test [3]) were 88% and 83%, respectively.
Take anti-tenascin monoclonal antibody BC-2: the Kd is 254 nM in the test with human tenascin C (human) [4] and 73.9 nM in test [5].

B1: anti-human tenascin monoclonal antibody ST2485 (antibody, V domains shown)
VH: EVQLQQSGPELVKPGASMKISCKASGYSFTGYTMNWVKQSHGKNLEWIGLINPHNGGTTYNQKFKGKATLTVDKSSNTAYMELLSLTSEDSAVYYCTRPGGYYWFFDVWGAGTTVTVSS
VL: QIVLSQSPAILSASPGEKVTMTCRANSSVRFMHWYQQKPGSSPKPWIYATSNLASGVPARFSGSGSGTSYSVTISRVEAEDAATYYCQQWSSNSPRTFGGGTKVEIRR
modifications: part of the light chain is N-glycosylated (glycosylated and non-glycosylated variants; site not numbered)
notes: Mouse immunoglobulin of IgG1/k isotype from hybridoma cST2485
Regarding B1, the binding result in test [6] is reported as “no binding”. The Kd with human tenascin C (human) [4] turned out to be 0.977 nM; in test [5], 0.972 nM. In [5], this molecule displayed a koff of 0.000319 s⁻¹. Also, in test [5], the kon worked out at 328000 M⁻¹ s⁻¹. Moreover, the values for the fold less antibody than BC-2 needed to obtain 1.0 OD (in the test with human tenascin C (human) [7]; in test [8]) were 13 fold and about 10 fold, respectively. This molecule also yielded a % inhibition of BC-2 binding with human tenascin C (human) [9] of 40%. This molecule also showed an EC50 (read off the curve) in the test with human tenascin C (human) [10] of 0.02 µg/mL. The “IC50 (read off the curve)” value in [11] was about 0.03 µg/mL.

B2: biotinylated ST2485 (antibody, V domains shown)
VH: EVQLQQSGPELVKPGASMKISCKASGYSFTGYTMNWVKQSHGKNLEWIGLINPHNGGTTYNQKFKGKATLTVDKSSNTAYMELLSLTSEDSAVYYCTRPGGYYWFFDVWGAGTTVTVSS
VL: QIVLSQSPAILSASPGEKVTMTCRANSSVRFMHWYQQKPGSSPKPWIYATSNLASGVPARFSGSGSGTSYSVTISRVEAEDAATYYCQQWSSNSPRTFGGGTKVEIRR
modifications: biotinylated, 8.3 biotins/molecule of antibody (sites not given)
With B2, the Kd with human tenascin C (human) [1] was 2.88 nM. This molecule displayed a fold greater affinity than biotinylated BC-2 in the test with human tenascin C (human) [12] of 100 fold. For the same molecule, in the test with human tenascin C (human) [2], the residual immunoreactivity was determined as 76%.
